Test results from the RNAGym collection of RNA variant scans (doi:10.7554/elife.80360).

B1: Hairpin Ribozyme (parent)
chain: GUCCUCUUUCACGUGCGCGUGAAAGAGAGAAGUGAACCAGAGAAACACACGUUGUGGUAUAUUACCUGGUA

Variants of: B1
Assay: self-cleavage, relative activity (ratio to wild type); higher = more cleavage; co-transcriptional

Variant | self-cleavage
GUCCUCUUUCACGUGCGCGUGAAAGAGAUAAGUGAACCAGAGAAACACACGUUGUAGUAUAUUACCUGGUA [G29U G56A] | 0.162
GUCCUCUUUCACGUGCGCGUGAAAGAGAUAAGUGAACCAGAGAAACACACGUUGUGGUAUAUAACCUGGUA [G29U U63A] | 0.146
GUCCUCUUUCACGUGCGCGUGAAAGAGACAAGUGAACCAGAGAAACACACGUUGUGUUAUAUUACCUGGUA [G29C G57U] | 0.142
GUCCUCUUUCACGUGCGCGUGAAAGAGACAAGUGAACCAGAGAAACACACGUUGUGAUAUAUUACCUGGUA [G29C G57A] | 0.215
GUCCUCUUUCACGUGCGCGUGAAAGAGACAAGUGAACCAGAGAAACACACUUUGUGGUAUAUUACCUGGUA [G29C G51U] | 0.141
GUCCUCUUUCACGUGCGCGUGAAAGAGACAAGUGAACCAGAGAAACAUACGUUGUGGUAUAUUACCUGGUA [G29C C48U] | 0.203
GUCCUCUUUCACGUGCGCGUGAAAGAGAUAAGUGAACCAGAGAAACACACGUUGUGGUAUAUUACCUGGAA [G29U U70A] | 0.21
GUCCUCUUUCACGUGCGCGUGAAAGAGACAAGUGAACCAGAGAGACACACGUUGUGGUAUAUUACCUGGUA [G29C A44G] | 0.243
GUCCUCUUUCACGUGCGCGUGAAAGAGAUAAGUGAACCAGAGAAACACACGUUGUGGUACAUUACCUGGUA [G29U U60C] | 0.107
GUCCUCUUUCACGUGCGCGUGAAAGAGACAAGUGAACCAGAGAAACACACGUUGUGGUAUAUCACCUGGUA [G29C U63C] | 0.094
GUCCUCUUUCACGUGCGCGUGAAAGAGAUAAGUGAACCCGAGAAACACACGUUGUGGUAUAUUACCUGGUA [G29U A39C] | 0.174
GUCCUCUUUCACGUGCGCGUGAAAGAGAUAAGUGAACCAGAGAAACAGACGUUGUGGUAUAUUACCUGGUA [G29U C48G] | 0.096
GUCCUCUUUCACGUGCGCGUGAAAGAGACAAGUGAACCAGAGAAAGACACGUUGUGGUAUAUUACCUGGUA [G29C C46G] | 0.0799
GUCCUCUUUCACGUGCGCGUGAAAGAGACAAGUGAACCAGAGAAACACACGCUGUGGUAUAUUACCUGGUA [G29C U52C] | 0.163
GUCCUCUUUCACGUGCGCGUGAAAGAGACAAGUGAACCAGAGAAACACACGUUGUGGUAUAUUACCCGGUA [G29C U67C] | 0.0789
GUCCUCUUUCACGUGCGCGUGAAAGAGAUGAGUGAACCAGAGAAACACACGUUGUGGUAUAUUACCUGGUA [G29U A30G] | 0.189
GUCCUCUUUCACGUGCGCGUGAAAGAGAUUAGUGAACCAGAGAAACACACGUUGUGGUAUAUUACCUGGUA [G29U A30U] | 0.176
GUCCUCUUUCACGUGCGCGUGAAAGAGACAAGUAAACCAGAGAAACACACGUUGUGGUAUAUUACCUGGUA [G29C G34A] | 0.158
GUCCUCUUUCACGUGCGCGUGAAAGAGACAAGUUAACCAGAGAAACACACGUUGUGGUAUAUUACCUGGUA [G29C G34U] | 0.0954
GUCCUCUUUCACGUGCGCGUGAAAGAGACAAGUGAACCAGAGAAACACACGUUGUGGGAUAUUACCUGGUA [G29C U58G] | 0.077
GUCCUCUUUCACGUGCGCGUGAAAGAGACAAGUGAACCAGAGAAACACACGUUGUGGAAUAUUACCUGGUA [G29C U58A] | 0.213
GUCCUCUUUCACGUGCGCGUGAAAGAGAUAAGUGAACCAGAGAAACACACGUUGUGGUAUAUUACCGGGUA [G29U U67G] | 0.132
GUCCUCUUUCACGUGCGCGUGAAAGAGAUAAGUGAACCAGAGAAACACACGUUGUGGUAUAUUACCAGGUA [G29U U67A] | 0.0852
GUCCUCUUUCACGUGCGCGUGAAAGAGAUAAGUGAACCAGAGAAACUCACGUUGUGGUAUAUUACCUGGUA [G29U A47U] | 0.169
GUCCUCUUUCACGUGCGCGUGAAAGAGAUAAGUGAACCAGAGAAACCCACGUUGUGGUAUAUUACCUGGUA [G29U A47C] | 0.0936
GUCCUCUUUCACGUGCGCGUGAAAGAGAUAAGUGAACCAGAGAAACACACGUGGUGGUAUAUUACCUGGUA [G29U U53G] | 0.102

Variant | self-cleavage
GUCCUCUUUCACGUGCGCGUGAAAGAGAUAAGUGAAACAGAGAAACACACGUUGUGGUAUAUUACCUGGUA [G29U C37A] | 0.163
GUCCUCUUUCACGUGCGCGUGAAAGAGACAAGUGAACCAGAGAAACACACGUUGUGGUAUAUUACCUGUUA [G29C G69U] | 0.119
GUCCUCUUUCACGUGCGCGUGAAAGAGACAAGUGAACCAGAGAAACACACGUUGUGGUAUAUUACCUGAUA [G29C G69A] | 0.0986
GUCCUCUUUCACGUGCGCGUGAAAGAGACAAGUGAACCAGGGAAACACACGUUGUGGUAUAUUACCUGGUA [G29C A41G] | 0.142
GUCCUCUUUCACGUGCGCGUGAAAGAGAUAAGUGAACCAGAGAAACACACGUUGUGGUAUAUUACUUGGUA [G29U C66U] | 0.106
GUCCUCUUUCACGUGCGCGUGAAAGAGAUAAGUGAACCAGACAAACACACGUUGUGGUAUAUUACCUGGUA [G29U G42C] | 0.115
GUCCUCUUUCACGUGCGCGUGAAAGAGAUAAGUGAACCAGAAAAACACACGUUGUGGUAUAUUACCUGGUA [G29U G42A] | 0.0859
GUCCUCUUUCACGUGCGCGUGAAAGAGAUAAGUGAACCAGAGAAACACUCGUUGUGGUAUAUUACCUGGUA [G29U A49U] | 0.0858
GUCCUCUUUCACGUGCGCGUGAAAGAGACAAGUGAACCAGAUAAACACACGUUGUGGUAUAUUACCUGGUA [G29C G42U] | 0.11
GUCCUCUUUCACGUGCGCGUGAAAGAGACAAGUGAACCAGAAAAACACACGUUGUGGUAUAUUACCUGGUA [G29C G42A] | 0.13
GUCCUCUUUCACGUGCGCGUGAAAGAGACAAGUGAACCAGAGAAACACACGUUGUGGUAGAUUACCUGGUA [G29C U60G] | 0.201
GUCCUCUUUCACGUGCGCGUGAAAGAGAUAACUGAACCAGAGAAACACACGUUGUGGUAUAUUACCUGGUA [G29U G32C] | 0.105
GUCCUCUUUCACGUGCGCGUGAAAGAGACAAGUGAACCAGAGAAACACAAGUUGUGGUAUAUUACCUGGUA [G29C C50A] | 0.167
GUCCUCUUUCACGUGCGCGUGAAAGAGACAAGUGAACAAGAGAAACACACGUUGUGGUAUAUUACCUGGUA [G29C C38A] | 0.174
GUCCUCUUUCACGUGCGCGUGAAAGAGAUAAGUGAACCAGAGAAACACACGUUGUGCUAUAUUACCUGGUA [G29U G57C] | 0.108
GUCCUCUUUCACGUGCGCGUGAAAGAGAUAAGUGAACCAGAGAAACACACGUUGUGUUAUAUUACCUGGUA [G29U G57U] | 0.149
GUCCUCUUUCACGUGCGCGUGAAAGAGACAAGUGAACCAGAGAAACACACGUUGUGGUAUCUUACCUGGUA [G29C A61C] | 0.206
GUCCUCUUUCACGUGCGCGUGAAAGAGAUAAGUGAACCAGAGAAACACACGUUGUGGCAUAUUACCUGGUA [G29U U58C] | 0.18
GUCCUCUUUCACGUGCGCGUGAAAGAGAUAAGUGAACCAGAGAAACACACGUUGUGGUAUAGUACCUGGUA [G29U U62G] | 0.0909
GUCCUCUUUCACGUGCGCGUGAAAGAGAUAAGUGUACCAGAGAAACACACGUUGUGGUAUAUUACCUGGUA [G29U A35U] | 0.117
GUCCUCUUUCACGUGCGCGUGAAAGAGAUAAGUGAACCAGAGAAACACACGUUGUGGUAUAUUACCUCGUA [G29U G68C] | 0.137
GUCCUCUUUCACGUGCGCGUGAAAGAGAUAAGAGAACCAGAGAAACACACGUUGUGGUAUAUUACCUGGUA [G29U U33A] | 0.169
GUCCUCUUUCACGUGCGCGUGAAAGAGAUAAGCGAACCAGAGAAACACACGUUGUGGUAUAUUACCUGGUA [G29U U33C] | 0.165
GUCCUCUUUCACGUGCGCGUGAAAGAGAUAAGUGAACGAGAGAAACACACGUUGUGGUAUAUUACCUGGUA [G29U C38G] | 0.186
GUCCUCUUUCACGUGCGCGUGAAAGAGAUAAGUGAACAAGAGAAACACACGUUGUGGUAUAUUACCUGGUA [G29U C38A] | 0.179
GUCCUCUUUCACGUGCGCGUGAAAGAGACAAGUGAACCAAAGAAACACACGUUGUGGUAUAUUACCUGGUA [G29C G40A] | 0.115

Variant | self-cleavage
GUCCUCUUUCACGUGCGCGUGAAAGAGACAAGUGAACCACAGAAACACACGUUGUGGUAUAUUACCUGGUA [G29C G40C] | 0.133
GUCCUCUUUCACGUGCGCGUGAAAGAGACAAGUGAACCAGAGAAACACCCGUUGUGGUAUAUUACCUGGUA [G29C A49C] | 0.159
GUCCUCUUUCACGUGCGCGUGAAAGAGACAAGUGAACCAGAGAAACACACGUUGUGGUUUAUUACCUGGUA [G29C A59U] | 0.207
GUCCUCUUUCACGUGCGCGUGAAAGAGAUAAGUGAACCAGAGAAACACACGUUGUGGUAUAUUAACUGGUA [G29U C65A] | 0.139
GUCCUCUUUCACGUGCGCGUGAAAGAGAUAAGUGAACCAGAGAAACACACGUUGUGGUAUUUUACCUGGUA [G29U A61U] | 0.0881
GUCCUCUUUCACGUGCGCGUGAAAGAGACAAGUGAACCAGAGAAACACACGUUGCGGUAUAUUACCUGGUA [G29C U55C] | 0.127
GUCCUCUUUCACGUGCGCGUGAAAGAGACAAAUGAACCAGAGAAACACACGUUGUGGUAUAUUACCUGGUA [G29C G32A] | 0.167
GUCCUCUUUCACGUGCGCGUGAAAGAGACAAUUGAACCAGAGAAACACACGUUGUGGUAUAUUACCUGGUA [G29C G32U] | 0.121
GUCCUCUUUCACGUGCGCGUGAAAGAGACAACUGAACCAGAGAAACACACGUUGUGGUAUAUUACCUGGUA [G29C G32C] | 0.128
GUCCUCUUUCACGUGCGCGUGAAAGAGAUAAGUGAACCAGAGUAACACACGUUGUGGUAUAUUACCUGGUA [G29U A43U] | 0.215
GUCCUCUUUCACGUGCGCGUGAAAGAGAUAAGUGAACCAGAGAAACACACGUUUUGGUAUAUUACCUGGUA [G29U G54U] | 0.207
GUCCUCUUUCACGUGCGCGUGAAAGAGAUAAGUAAACCAGAGAAACACACGUUGUGGUAUAUUACCUGGUA [G29U G34A] | 0.0892
GUCCUCUUUCACGUGCGCGUGAAAGAGACAAGUGAACCAGAGCAACACACGUUGUGGUAUAUUACCUGGUA [G29C A43C] | 0.125
GUCCUCUUUCACGUGCGCGUGAAAGAGAUAAGUGAACCAGAGAAACACACGUUGUGGUAUAUUACCUGGUU [G29U A71U] | 0.185
GUCCUCUUUCACGUGCGCGUGAAAGAGAUAAGUGAACCAGAGAAACACACGUUGUGGUAUAUUACCUGGUG [G29U A71G] | 0.171
GUCCUCUUUCACGUGCGCGUGAAAGAGAUAAGUGAACCAGAGAAACACACGUUGUGGUAUAUUUCCUGGUA [G29U A64U] | 0.14
GUCCUCUUUCACGUGCGCGUGAAAGAGAUAAGUGAACCAGAGAAAGACACGUUGUGGUAUAUUACCUGGUA [G29U C46G] | 0.182
GUCCUCUUUCACGUGCGCGUGAAAGAGAUAAGUGAACCAGAGAAACACACGAUGUGGUAUAUUACCUGGUA [G29U U52A] | 0.124
GUCCUCUUUCACGUGCGCGUGAAAGAGAUAAGUGAACCAGAGAAUCACACGUUGUGGUAUAUUACCUGGUA [G29U A45U] | 0.101
GUCCUCUUUCACGUGCGCGUGAAAGAGAUAAGUGAACCAGAGAACCACACGUUGUGGUAUAUUACCUGGUA [G29U A45C] | 0.0757
GUCCUCUUUCACGUGCGCGUGAAAGAGACAAGUGAACCAGAGAAACACACGUUGUGGUAUAUUACCUGGUG [G29C A71G] | 0.206
GUCCUCUUUCACGUGCGCGUGAAAGAGACAAGUGAACCAGAGAAACACACGUUGUGGUAUAUUACCUGGUC [G29C A71C] | 0.179
GUCCUCUUUCACGUGCGCGUGAAAGAGAUAAGUGAACCAGAGAAACACACCUUGUGGUAUAUUACCUGGUA [G29U G51C] | 0.167
GUCCUCUUUCACGUGCGCGUGAAAGAGACAAGUGAACCAGAGAAACACACGUUGUGGUAUAUUACCUAGUA [G29C G68A] | 0.0962
